The source of these data is patent US20220380409A1 (CALIFORNIA INSTITUTE OF TECHNOLOGY, published 2022).

Square brackets hold non-standard residues; d marks the D form. Ends that are not written are not given here. Pra = C#CC[C@H](N)C(=O)O; Az4 = not defined here; PEG = not defined here

Experiment [1] concerns the target T1, GST-PvLDH (Plasmodium berghei, UniProt P84793 1-313).
T1 construct: Printed as 'whole PvLDH' and 'GST-PvLDH'; also called whole PvLDH protein; not shown: glutathione S-transferase (GST) tag
Nature of the experiment: ELISA: 5 uM biotinylated ligand on a streptavidin plate, GST-PvLDH overnight, antiGST-HRP detection (FIG. 10).

The target in experiment [2] is T2, LISDAELEAIFD (SEQ ID NO:34)-Az4-PEG-Biotin (Plasmodium falciparum, reading uncertain).
T2 peptide: LISDAELEAIFD-{Az4-PEG-biotin}
Nature of the experiment: in situ click bead screen of cyclic library C against LISDAELEAIFD-Az4-PEG-Biotin; hits formed a triazole linkage to the epitope peptide.

The target in experiment [3] is T3, PfLDH protein (Plasmodium falciparum, UniProt Q27743 2-316).
T3 construct: also called Plasmodium falciparum LDH protein
Nature of the experiment: ELISA titration of PfLDH protein on the ligand (FIG. 11).

The target of experiment [4] is T3, PfLDH protein. Nature of the experiment: in situ click bead screen of azide-modified cyclic library C with pfLDH and alkyne-modified hevwh anchor; hit found by triazole formation with the primary ligand.

B1: HWSAN (SEQ ID NO:11) peptide, triazole-cyclized (peptide)
peptide: [Pra]HWSAN
modifications: triazole (positions not given here); also: biotinylated in plate assay, construct not described
notes: Variable region only; The exact biotinylated construct used on the streptavidin plate is not described; also called Hit 6
Take B1: the binding result in experiment [1] and in experiment [2] was “binds” in each case.

B2: KKIHL (SEQ ID NO:6), hit 2 against LDH (peptide)
peptide: [Pra]KKIHL
modifications: triazole (positions not given here); not fully specified (bridges)
notes: On-bead library member; variable region only
On to B2, for which, in experiment [2], the binding result was “binds”.

B3: PLKKG (SEQ ID NO:8), hit 4 against LDH (peptide)
peptide: [Pra]PLKKG
modifications: triazole (positions not given here); not fully specified (bridges)
notes: as for B2
On to B3, for which the binding result in experiment [2] was “binds”.

B4: RCM cyclized version of the HWSAN (SEQ ID NO:11) peptide (peptide)
peptide: HWSAN
modifications: staple (positions not given here); also: RCM between olefin-bearing non-natural residues, places not given here, biotinylated
notes: also called RCM cyclic peptide; one of the RCM cyclized peptides
Consider B4, for which, in experiment [3], a half-maximal effect (EC50) was put at 2.5 nM.

B5: ELYKY (SEQ ID NO:19), hit 3 against pan pLDH (peptide)
peptide: ELYKY
modifications: triazole (positions not given here); also: Az4 (azide residue) at position 1, ring closed through triazole, places not given here
notes: Secondary ligand; It was found on bead by in situ click with alkyne-modified hevwh in the presence of pfLDH
With B5, the binding result in experiment [4] is recorded as “binds”.

B6: YLGHK (SEQ ID NO:14), hit 1 against pan pLDH (peptide)
peptide: YLGHK
modifications: triazole (positions not given here); also: Az4 (azide residue) at position 1, ring closed through triazole, places not given here
notes: as for B5
For B6, in experiment [4], the binding result was “binds”.

B7: RGGIL (SEQ ID NO:5), hit 1 against LDH (peptide)
peptide: [Pra]RGGIL
modifications: triazole (positions not given here); not fully specified (bridges)
notes: as for B2
For the molecule B7, in experiment [2], the binding result was “binds”.

B8: ILYWK (SEQ ID NO:7), hit 3 against LDH (peptide)
peptide: [Pra]ILYWK
modifications: triazole (positions not given here); not fully specified (bridges)
notes: as for B2
Turning to B8, the binding result in experiment [2] was “binds”.
